Data taken from article PMC9324987, “Comparative Analysis of Catabolic and Anabolic Dehydroshikimate Dehydratases for 3,4-DHBA Production in Escherichia coli” (Microorganisms, 2022).

How the values were obtained:
Qa-4 = biological target: T1, Qa-4 (Neurospora crassa, UniProt P07046); assay: […],4-DHBA formation at […] nm, product inhibition; assay type: biochemical
T1 construct: full length, C-terminal His6 (pET22b), codon-optimised synthetic gene, made in E. coli BL21(DE3); primer-encoded N-terminus MPSKLAISS
T1 sequence (P07046 1-359): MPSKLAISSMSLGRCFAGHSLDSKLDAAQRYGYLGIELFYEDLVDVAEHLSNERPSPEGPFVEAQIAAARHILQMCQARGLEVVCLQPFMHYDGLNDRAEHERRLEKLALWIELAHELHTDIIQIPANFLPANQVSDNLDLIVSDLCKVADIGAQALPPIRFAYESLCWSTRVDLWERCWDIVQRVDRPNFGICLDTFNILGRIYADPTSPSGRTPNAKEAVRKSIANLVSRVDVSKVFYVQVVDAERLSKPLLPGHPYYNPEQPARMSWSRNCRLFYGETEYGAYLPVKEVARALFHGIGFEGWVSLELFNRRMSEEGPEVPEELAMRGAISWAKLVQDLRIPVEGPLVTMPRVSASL

QsuB = biological target: T2, QsuB (Corynebacterium glutamicum, UniProt Q8NT86); assay: […],4-DHBA formation at […] nm, product inhibition; assay type: biochemical
T2 construct: gene Cgl0422
T2 sequence (Q8NT86 1-618): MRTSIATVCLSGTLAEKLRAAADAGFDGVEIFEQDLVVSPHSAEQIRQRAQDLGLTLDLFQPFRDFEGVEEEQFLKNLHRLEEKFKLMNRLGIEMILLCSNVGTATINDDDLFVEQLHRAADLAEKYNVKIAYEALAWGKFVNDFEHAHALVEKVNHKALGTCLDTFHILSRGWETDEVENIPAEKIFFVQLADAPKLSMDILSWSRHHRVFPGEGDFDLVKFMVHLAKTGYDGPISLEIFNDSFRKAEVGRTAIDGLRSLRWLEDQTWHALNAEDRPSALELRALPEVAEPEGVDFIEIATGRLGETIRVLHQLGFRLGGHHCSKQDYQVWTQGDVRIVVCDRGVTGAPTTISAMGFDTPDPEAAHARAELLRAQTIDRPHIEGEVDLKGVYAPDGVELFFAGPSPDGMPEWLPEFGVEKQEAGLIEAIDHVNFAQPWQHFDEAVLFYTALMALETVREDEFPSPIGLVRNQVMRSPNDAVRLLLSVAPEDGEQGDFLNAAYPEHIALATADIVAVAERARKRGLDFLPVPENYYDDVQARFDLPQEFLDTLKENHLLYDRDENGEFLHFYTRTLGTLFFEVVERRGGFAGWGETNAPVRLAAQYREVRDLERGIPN

AsbF = biological target: T3, AsbF (Bacillus thuringiensis, UniProt A0A1B1L4G3); assay: […],4-DHBA formation at […] nm, product inhibition; assay type: biochemical; details: 1 mM DHS, 10 mM Mg2+, 0.1 M Tris/HCl pH 7.5, 20 °C, 150 nM enzyme
T3 construct: gene CAB88_09740

purified protein [1] = substrate: O=C(O)C1=CC(=O)[C@@H](O)[C@H](O)C1; assay: purified protein; assay type: biochemical, Corynebacterium glutamicum; details: 10 mM metal salt (preferred metal, Co2+), 0.1 M Tris/HCl pH 7.5, 20 °C, 0.1-5 mM DHS
purified protein [2] = substrate: O=C(O)C1=CC(=O)[C@@H](O)[C@H](O)C1; assay: purified protein; assay type: biochemical, Neurospora crassa; details: 10 mM Mg2+, 0.1 M Tris/HCl pH 7.5, 20 °C, 0.1-5 mM DHS

T3 sequence (A0A1B1L4G3 1-280): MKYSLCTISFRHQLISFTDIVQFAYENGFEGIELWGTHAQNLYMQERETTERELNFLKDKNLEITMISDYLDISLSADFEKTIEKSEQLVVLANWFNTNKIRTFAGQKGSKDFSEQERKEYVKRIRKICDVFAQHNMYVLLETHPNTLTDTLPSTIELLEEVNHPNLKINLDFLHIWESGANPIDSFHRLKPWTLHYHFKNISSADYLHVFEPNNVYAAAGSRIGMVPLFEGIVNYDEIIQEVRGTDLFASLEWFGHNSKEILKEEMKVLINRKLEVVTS

**Q.** What does the source list for `O=C(O)c1ccc(O)c(O)c1` [3,4-DHBA]?
**A.** IC50 (Qa-4): ~640 µM; IC50 (QsuB): ~350 µM; IC50 (AsbF): ~80 µM

B1: QsuB (Corynebacterium glutamicum ATCC 13032) (protein)
chain: MRTSIATVCLSGTLAEKLRAAADAGFDGVEIFEQDLVVSPHSAEQIRQRAQDLGLTLDLFQPFRDFEGVEEEQFLKNLHRLEEKFKLMNRLGIEMILLCSNVGTATINDDDLFVEQLHRAADLAEKYNVKIAYEALAWGKFVNDFEHAHALVEKVNHKALGTCLDTFHILSRGWETDEVENIPAEKIFFVQLADAPKLSMDILSWSRHHRVFPGEGDFDLVKFMVHLAKTGYDGPISLEIFNDSFRKAEVGRTAIDGLRSLRWLEDQTWHALNAEDRPSALELRALPEVAEPEGVDFIEIATGRLGETIRVLHQLGFRLGGHHCSKQDYQVWTQGDVRIVVCDRGVTGAPTTISAMGFDTPDPEAAHARAELLRAQTIDRPHIEGEVDLKGVYAPDGVELFFAGPSPDGMPEWLPEFGVEKQEAGLIEAIDHVNFAQPWQHFDEAVLFYTALMALETVREDEFPSPIGLVRNQVMRSPNDAVRLLLSVAPEDGEQGDFLNAAYPEHIALATADIVAVAERARKRGLDFLPVPENYYDDVQARFDLPQEFLDTLKENHLLYDRDENGEFLHFYTRTLGTLFFEVVERRGGFAGWGETNAPVRLAAQYREVRDLERGIPN
**Q.** How did the Km (purified protein [1]) turn out when B1 was run?
**A.** 961 ± 77 µM

**Q.** What about the kcat (purified protein [1]) of the same molecule?
**A.** 60.8 ± 0.9 s⁻¹

**Q.** And the kcat/Km (purified protein [1])?
**A.** 63300 ± 11700 M⁻¹ s⁻¹

B2: Qa-4 (Neurospora crassa OR74A) (protein)
chain: MPSKLAISSMSLGRCFAGHSLDSKLDAAQRYGYLGIELFYEDLVDVAEHLSNERPSPEGPFVEAQIAAARHILQMCQARGLEVVCLQPFMHYDGLNDRAEHERRLEKLALWIELAHELHTDIIQIPANFLPANQVSDNLDLIVSDLCKVADIGAQALPPIRFAYESLCWSTRVDLWERCWDIVQRVDRPNFGICLDTFNILGRIYADPTSPSGRTPNAKEAVRKSIANLVSRVDVSKVFYVQVVDAERLSKPLLPGHPYYNPEQPARMSWSRNCRLFYGETEYGAYLPVKEVARALFHGIGFEGWVSLELFNRRMSEEGPEVPEELAMRGAISWAKLVQDLRIPVEGPLVTMPRVSASL
notes: full length, C-terminal His6 (pET22b), codon-optimised synthetic gene, made in E. coli BL21(DE3); primer-encoded N-terminus MPSKLAISS
**Q.** With B2 as the molecule, how does the Km (purified protein [2]) read?
**A.** 598 ± 16 µM

**Q.** What about the kcat (purified protein [2]) of the same molecule?
**A.** 218.6 ± 1.1 s⁻¹

**Q.** What about the kcat/Km (purified protein [2]) of the same molecule?
**A.** 366000 ± 68800 M⁻¹ s⁻¹
